Results published in patent US20250042956A1 (University of California, published 2025).

What was measured:
Assay in all cases: IP-MS rep 2
AT3G10480.3 NAC050 = molecular target: T1, AT3G10480.3 NAC050 (Arabidopsis thaliana, UniProt Q9SQX9 1-447, limits assumed)
T1 construct: Endogenous protein found by mass spectrometry
T1 sequence (looked up): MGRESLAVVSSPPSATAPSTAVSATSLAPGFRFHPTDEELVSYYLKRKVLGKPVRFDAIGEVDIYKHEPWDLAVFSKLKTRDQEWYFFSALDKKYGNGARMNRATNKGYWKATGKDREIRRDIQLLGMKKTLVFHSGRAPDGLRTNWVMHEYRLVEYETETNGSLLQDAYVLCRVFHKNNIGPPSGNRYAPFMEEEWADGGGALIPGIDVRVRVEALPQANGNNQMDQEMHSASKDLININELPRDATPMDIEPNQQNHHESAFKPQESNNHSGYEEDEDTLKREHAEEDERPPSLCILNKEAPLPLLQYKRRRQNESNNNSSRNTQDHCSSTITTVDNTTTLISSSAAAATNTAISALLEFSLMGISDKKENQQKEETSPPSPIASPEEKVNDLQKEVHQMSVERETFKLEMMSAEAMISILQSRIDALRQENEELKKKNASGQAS
Method in brief: (§1)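 Mass spectrometry of anti-FLAG eluates gave the peptide counts for co-purified proteins. The eluates came from ten grams of unopened floral buds of wild-type and FLAG-tagged transgenic Arabidopsis, ground in liquid nitrogen and homogenised in 25 mL IP buffer. Lysates were bound to 250 μL anti-FLAG M2 magnetic beads for 2 hours at 4° C and released with 250 μg/mL 3×FLAG peptides in TBS.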

AT3G20740.1 FIE = molecular target: T2, AT3G20740.1 FIE (Arabidopsis thaliana, UniProt Q9LT47 1-369)
T2 construct: Endogenous protein found by mass spectrometry; also called FERTILIZATION INDEPENDENT ENDOSPERM
T2 sequence (looked up): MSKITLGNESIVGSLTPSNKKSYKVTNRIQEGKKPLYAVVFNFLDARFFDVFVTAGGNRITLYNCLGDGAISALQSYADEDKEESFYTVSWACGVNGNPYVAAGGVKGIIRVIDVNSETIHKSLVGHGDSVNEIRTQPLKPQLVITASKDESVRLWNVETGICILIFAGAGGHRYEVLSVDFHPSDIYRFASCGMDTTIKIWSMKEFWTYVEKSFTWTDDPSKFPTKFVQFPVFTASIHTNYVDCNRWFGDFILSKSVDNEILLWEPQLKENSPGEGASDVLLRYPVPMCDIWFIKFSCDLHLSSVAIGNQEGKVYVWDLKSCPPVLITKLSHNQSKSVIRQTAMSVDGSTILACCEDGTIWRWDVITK
Method in brief: as §1

AT4G35510.1 TRBIP1 = molecular target: T3, AT4G35510.1 TRBIP1 (Arabidopsis thaliana)
T3 construct: Endogenous protein found by mass spectrometry
T3 chain: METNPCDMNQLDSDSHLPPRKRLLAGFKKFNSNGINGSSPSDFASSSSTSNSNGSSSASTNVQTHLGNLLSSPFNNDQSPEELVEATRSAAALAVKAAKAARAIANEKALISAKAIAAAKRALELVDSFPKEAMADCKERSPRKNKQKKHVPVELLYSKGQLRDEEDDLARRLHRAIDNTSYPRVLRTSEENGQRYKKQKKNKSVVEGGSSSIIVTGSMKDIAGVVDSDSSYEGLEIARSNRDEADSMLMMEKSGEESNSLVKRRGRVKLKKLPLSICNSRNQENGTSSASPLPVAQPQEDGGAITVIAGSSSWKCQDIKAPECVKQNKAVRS
Method in brief: as §1

AT5G08450.1 HDC1 = molecular target: T4, AT5G08450.1 HDC1 (Arabidopsis thaliana)
T4 construct: Endogenous protein found by mass spectrometry
Method in brief: as §1

AT1G49950.3 TRB1 = molecular target: T5, AT1G49950.3 TRB1 (Arabidopsis thaliana, UniProt Q8VWK4 1-300, limits assumed)
T5 construct: Endogenous protein found by mass spectrometry
T5 sequence: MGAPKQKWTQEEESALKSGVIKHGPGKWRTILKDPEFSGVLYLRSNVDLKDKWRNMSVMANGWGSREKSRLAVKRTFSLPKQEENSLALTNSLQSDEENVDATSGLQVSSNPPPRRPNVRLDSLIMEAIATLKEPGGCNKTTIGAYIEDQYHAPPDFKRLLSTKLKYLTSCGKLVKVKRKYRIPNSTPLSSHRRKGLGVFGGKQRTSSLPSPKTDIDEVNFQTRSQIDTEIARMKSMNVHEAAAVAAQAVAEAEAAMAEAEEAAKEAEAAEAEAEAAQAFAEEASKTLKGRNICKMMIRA
Method in brief: as §1

AT5G67580.1 TRB2 = molecular target: T6, AT5G67580.1 TRB2 (Arabidopsis thaliana, UniProt Q9FJW5 1-299)
T6 construct: Endogenous protein found by mass spectrometry
T6 sequence: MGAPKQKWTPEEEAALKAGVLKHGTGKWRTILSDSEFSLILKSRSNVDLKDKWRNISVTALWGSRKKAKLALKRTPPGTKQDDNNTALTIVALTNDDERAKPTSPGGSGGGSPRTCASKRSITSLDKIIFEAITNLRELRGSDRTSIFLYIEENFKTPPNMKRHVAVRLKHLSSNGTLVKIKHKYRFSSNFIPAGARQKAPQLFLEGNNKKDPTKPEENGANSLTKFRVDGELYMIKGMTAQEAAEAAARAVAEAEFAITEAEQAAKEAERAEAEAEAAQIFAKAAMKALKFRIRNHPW
Method in brief: as §1

AT3G49850.1 TRB3 = molecular target: T7, AT3G49850.1 TRB3 (Arabidopsis thaliana, UniProt Q9M2X3 1-295)
T7 construct: Endogenous protein found by mass spectrometry
T7 sequence: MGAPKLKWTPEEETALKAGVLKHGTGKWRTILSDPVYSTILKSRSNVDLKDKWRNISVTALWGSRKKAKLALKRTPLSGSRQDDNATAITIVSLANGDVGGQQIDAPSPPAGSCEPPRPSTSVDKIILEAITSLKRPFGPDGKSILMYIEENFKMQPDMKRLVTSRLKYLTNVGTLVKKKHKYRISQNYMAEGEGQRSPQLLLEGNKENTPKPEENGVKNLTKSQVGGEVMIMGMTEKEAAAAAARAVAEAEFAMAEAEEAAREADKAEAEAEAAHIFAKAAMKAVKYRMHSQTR
Method in brief: as §1

- IP-MS count (AT3G10480.3 NAC050): 0
- IP-MS count (AT3G20740.1 FIE): 0
- IP-MS count (AT4G35510.1 TRBIP1): 0
- IP-MS count (AT5G08450.1 HDC1): 0
- IP-MS count (AT1G49950.3 TRB1): 5
- IP-MS count (AT5G67580.1 TRB2): 3
- IP-MS count (AT3G49850.1 TRB3): 6
B1: TRBIP2 (bait of the TRBIP2 IP-MS) (other, not shown: small tags and cut ends)
chain: MATNACLESDSLLPPRKRLLAGFKNQNSRISNESPSPPFASSSSSTTTSNGSSASAVVHTHHLDHLLNDQTRSPEELAQASKATAALAVKVAKAARATANEKAIIASKAVAAAKNALELFASFPAAETVSCKEPRLIRAINNSPRVLTDCSGHRNKKQKTLTSTMNDGNDVAGVVDSDDGTRVNGKLLLCDNTLKEKTEEESSSLGKRRGRVKLPLSMCAYKDQENGITLEENNLSVSKSEGYNGGVAQVIERPSWKCQDLKSPECVKQNKVVRS
notes: tag and its position not described; also called TRBIP2-1; TRBIP2-2
